Reference: the nanobody polyreactivity screen of Harvey et al. (2022)

Assay: yeast display, Sf9 membrane polyspecificity reagent, FACS + sequencing; frameworks hold sequencing errors
How it was run: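 Using colony PCR, genes from sorted yeast display clones were amplified, then sequenced on MiSeq at 2 × 250 and filtered by CDR length. The clones had been stained with 10% biotinylated, detergent-solubilized Sf9 membrane reagent for 1 hour at 4 °C and sorted by FACS into low and high (top ~1%) gates on anti-HA and streptavidin fluorescence. Polyreactivity labels come from the gate of origin.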

| Sequence | polyreactivity (PSR sort gate) |
| --- | --- |
| QVQLVESGGGLVQAGGSLRLSCAASGFIFWEYAMGWYRQAPGKERELVAVISYRGGSTYYADSVKGRFTISRDNAKNTVYLQMNSLKPEDTAVYYCNADTIPDGEDRYDYWGQGTQVTVSS | low polyreactivity |
| QVQLVESGGGLVQAGGSLRLSCAASGRTFTSNAMGWYRQAPGKERELVAAISNRGTRTYYADSVKGRFTISRDNAKNTVYLQMNSLKPEDTAVYYCAARVSTVFKRYYYWGQGTQVTVSS | high polyreactivity |
| KVQLVESGGGLVQAGGSLRLSCAASGLIFYDNMGWYRQAPGKERELVAAISSSGGSTSYADSVKGRFTISRDNAKITVYLQMNSLKPEDTAVYYFAADSYPAYLGFVGFDYWGQGTQVTVSS | low polyreactivity |
| QVQLVESGGGLVQAGGSLRLSCAASGRIVVGYVMGWYRQSPGKERELVADIRSRGDSTYYADSVKGRFTISRDNAKNTVYLQMNSLKPEDTAVYYCNVLGYSYWGQGTQVTVSS | high polyreactivity |
| QVQLVESGGGLVQAGGSLRLSCAASGRIFYAYAMGWYRQAPGKERELVAGITYSGSSTYYADSVKGRFTISRDNAKNTVYLQMNSLKPEDTAVYYCAADLTRVLRYNYWGQGTQVSVSS | low polyreactivity |
| QVQLVEAGRGLVQAGGSLRLSCAASGRTIDHYAMGWYRQAPGKERELVAAMSPTGGSTYYADSVKGRFTISRDNAKNSVYLQMNSLKPEDTAVYYCNARYYFYSATVDRYYHFYYWGQGTQVTVSS | high polyreactivity |
| QVQLVESAGGLVQAGGSLRLSCAASGSIFYGNAMGWYRQAPGKERELVASITYSGGTTNYADSVKGRFTISRDTAKNTVYLQMNSLKPEDTAVYYCAADAIPDSVWYWEYDYWGQGTQVTVSS | low polyreactivity |
| QVQLVESGGGLVQAGGSLRLSCAASGRIFYNYVMGWYRQAPGKERELVAAISDSGGSTYYADSVKGRFTISRDNAKNTVYLQMNSLKPEDTAVYYCNKVRPRKFWDYYYWGQGTQVTVSS | high polyreactivity |
| QVQLVESGGGLVQAGASLRLICAASGITFDWYGMGWYRHAPGKERELVATITGSGDSTNYADSVKGRFTISRDNAQNTVYLQMNSLKPEDTAVYYCAAPTSYDQFGYEYWGQGTIVTVSS | low polyreactivity |
| QVQLVESGGGLVQAGGRLRLSSAASGSTFHGYAMGWYRQEPGKERELVAAITSGDSTNYADSVKGRFTISRDNAKKTVYLQMNSLKPEDTAVYDCNAEGSSVLTGYWGYPPYWDTYVYWGQGTQVTVSA | low polyreactivity |
| QVQLVESGGGLVQAGGTLRLSCAASGRTFTIYAMGWYRQAPGKEREWVAAITSGGSSYYADSVKGRFTISRDNATKTDYLQMNSLKPEDTAVEYCARGYAVSLVSRYYYWGQGTQVTVSS | low polyreactivity |
| QVQLVESGGGLLQAGGSLPLSCPASGRIFYSYAMGWYRQAPGKERELVAGINWRGSNTYYADSVKGRFTISRDNAKNTVYFQMNSLKPEDTAVYYCSATYYQERRRGYWGQGSQVTVSS | high polyreactivity |
| QVQLVESGGGLVQAGGSLRLRCAASGRIFPWYAMGWYRHAPGGEREFVAVISRSGGSTYYADSVKGRFTISRDNAKNTVYLQMNSLKPEDTAVYYCASDGKFEYDYWGQGTQVTVSS | low polyreactivity |
| QVQLVESGGGLVQAGGSLRLSCAASGFIFYYNAMGWYRQAPGKERELVAAITRSGGSTYYADSVKGRFTISRDNAKNTVYLQMNSLKPEDTAVYYCAARVYPYHWSYYYWGQGTQVTVSS | high polyreactivity |
| QVQLVESGGGLVQAGGSLRLSCAASGRIFTHNAIGWYRQAPGKERELVAGISYGGGSTYYADSVKGRFTISRDNAKITVYLQMNSLKPEDTAVYYCIAYIYDTYYWGQGTQVTVSS | low polyreactivity |
| QVQLVESGGGLVQAGGSLRLSCAASGSIFGSYAMGWYRQAPGKERELVAAIRSGGGTYYADSVKGRFTISRDNAKNTVYLQMNSLKPEDTAVYYCAAGDGFYFSFYIYDYWGQGTQGTVSS | low polyreactivity |
| QVQLVESGGGLVQAGGSLRLSCAASGNIFVLYAMGWYRQAPGKERELVASITSDGITYYADSVKGRFTISRDNAKNTVYLQMNSLKPEDTAVYYCAVDRSYRYLPRGDYWGQGTQVTVSS | low polyreactivity |
| QVQLVESGGRLVQPGGSLRLSCAASGFIFFYYAMGWYSQAPGKESELVAAISSGGSTNYADSVKGRFTISRDNAKNTVYLQMNSLKPEDTAVYYCAKRPTGGYKYYYTTSKYDYWGQGTQVTVSS | low polyreactivity |
| QVQLVESGGGLVQAGGSLRLSCAASGRTSLLYAMGWYRQAPGKERELVATISIGGSTYYADSVKGRFTISRDNAKKTVYLQMKSRKPEDTAVYYCAADVWWFFQPSTLGDFEYWGQGTQVTVSS | low polyreactivity |
| QVHLVESGGGLLQAGGSLRLSCAASGSTFYSYAMGWYRQAPGKERELVAAITYSDGDTYYADSVKGRFTISRDNAKNTVYLQMNSLKPEDTAVYYCAAEYQGQPGTGNLEYWGQGTQVTVSS | low polyreactivity |
| QVQLVEAGGGFVQAGGSLRLSCAASGSIIVPYAMGWYRQPPGKESELVAAISSRGGRTYYADSVKGRFTISRENAMNSVYLQMNSLKPEDSAVYDCNKTGGSHIPRLEYWGQGTQVTVSS | low polyreactivity |
